Test results taken from patent publication US20220315967A1, “METHODS FOR PRODUCING D-TRYPTOPHAN AND SUBSTITUTED D-TRYPTOPHANS” (priority 2019, published 2022).

What was measured:
[1] = molecular target: T1, D-tryptophanyl-S-IvoA-ΔC(E^0)
T1 chain: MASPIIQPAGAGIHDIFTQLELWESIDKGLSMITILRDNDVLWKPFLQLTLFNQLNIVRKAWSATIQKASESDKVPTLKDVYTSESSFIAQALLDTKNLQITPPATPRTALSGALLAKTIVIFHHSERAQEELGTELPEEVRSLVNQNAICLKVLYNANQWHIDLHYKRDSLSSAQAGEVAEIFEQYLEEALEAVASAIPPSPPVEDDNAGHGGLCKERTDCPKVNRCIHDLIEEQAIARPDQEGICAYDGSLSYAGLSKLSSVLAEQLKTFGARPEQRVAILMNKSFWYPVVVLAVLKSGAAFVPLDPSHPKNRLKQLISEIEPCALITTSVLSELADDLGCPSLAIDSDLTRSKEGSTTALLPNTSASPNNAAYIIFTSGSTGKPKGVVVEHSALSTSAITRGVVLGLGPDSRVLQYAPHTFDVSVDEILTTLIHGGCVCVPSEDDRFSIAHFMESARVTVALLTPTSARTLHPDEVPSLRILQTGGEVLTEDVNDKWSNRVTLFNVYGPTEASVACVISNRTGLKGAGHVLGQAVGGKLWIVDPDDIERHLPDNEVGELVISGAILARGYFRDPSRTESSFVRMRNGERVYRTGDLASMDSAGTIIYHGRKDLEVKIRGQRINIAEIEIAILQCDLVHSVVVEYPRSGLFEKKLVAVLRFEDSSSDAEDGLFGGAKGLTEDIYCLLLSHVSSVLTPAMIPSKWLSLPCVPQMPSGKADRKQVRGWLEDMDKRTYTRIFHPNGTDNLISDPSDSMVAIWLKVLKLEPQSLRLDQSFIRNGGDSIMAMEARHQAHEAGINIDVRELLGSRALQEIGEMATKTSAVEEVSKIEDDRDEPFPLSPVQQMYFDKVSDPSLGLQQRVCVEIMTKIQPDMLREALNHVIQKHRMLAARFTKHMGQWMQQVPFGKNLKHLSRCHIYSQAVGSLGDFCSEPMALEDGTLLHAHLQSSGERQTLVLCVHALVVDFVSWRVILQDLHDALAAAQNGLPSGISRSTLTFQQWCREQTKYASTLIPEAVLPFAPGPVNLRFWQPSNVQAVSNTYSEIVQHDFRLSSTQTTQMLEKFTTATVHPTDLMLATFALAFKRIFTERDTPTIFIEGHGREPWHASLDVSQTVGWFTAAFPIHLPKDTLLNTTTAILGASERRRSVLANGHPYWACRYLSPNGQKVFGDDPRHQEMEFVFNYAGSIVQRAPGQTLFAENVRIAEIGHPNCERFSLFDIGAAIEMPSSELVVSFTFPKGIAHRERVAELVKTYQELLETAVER

[2] = molecular target: T2, IvoA-ΔC truncation mutant
T2 chain: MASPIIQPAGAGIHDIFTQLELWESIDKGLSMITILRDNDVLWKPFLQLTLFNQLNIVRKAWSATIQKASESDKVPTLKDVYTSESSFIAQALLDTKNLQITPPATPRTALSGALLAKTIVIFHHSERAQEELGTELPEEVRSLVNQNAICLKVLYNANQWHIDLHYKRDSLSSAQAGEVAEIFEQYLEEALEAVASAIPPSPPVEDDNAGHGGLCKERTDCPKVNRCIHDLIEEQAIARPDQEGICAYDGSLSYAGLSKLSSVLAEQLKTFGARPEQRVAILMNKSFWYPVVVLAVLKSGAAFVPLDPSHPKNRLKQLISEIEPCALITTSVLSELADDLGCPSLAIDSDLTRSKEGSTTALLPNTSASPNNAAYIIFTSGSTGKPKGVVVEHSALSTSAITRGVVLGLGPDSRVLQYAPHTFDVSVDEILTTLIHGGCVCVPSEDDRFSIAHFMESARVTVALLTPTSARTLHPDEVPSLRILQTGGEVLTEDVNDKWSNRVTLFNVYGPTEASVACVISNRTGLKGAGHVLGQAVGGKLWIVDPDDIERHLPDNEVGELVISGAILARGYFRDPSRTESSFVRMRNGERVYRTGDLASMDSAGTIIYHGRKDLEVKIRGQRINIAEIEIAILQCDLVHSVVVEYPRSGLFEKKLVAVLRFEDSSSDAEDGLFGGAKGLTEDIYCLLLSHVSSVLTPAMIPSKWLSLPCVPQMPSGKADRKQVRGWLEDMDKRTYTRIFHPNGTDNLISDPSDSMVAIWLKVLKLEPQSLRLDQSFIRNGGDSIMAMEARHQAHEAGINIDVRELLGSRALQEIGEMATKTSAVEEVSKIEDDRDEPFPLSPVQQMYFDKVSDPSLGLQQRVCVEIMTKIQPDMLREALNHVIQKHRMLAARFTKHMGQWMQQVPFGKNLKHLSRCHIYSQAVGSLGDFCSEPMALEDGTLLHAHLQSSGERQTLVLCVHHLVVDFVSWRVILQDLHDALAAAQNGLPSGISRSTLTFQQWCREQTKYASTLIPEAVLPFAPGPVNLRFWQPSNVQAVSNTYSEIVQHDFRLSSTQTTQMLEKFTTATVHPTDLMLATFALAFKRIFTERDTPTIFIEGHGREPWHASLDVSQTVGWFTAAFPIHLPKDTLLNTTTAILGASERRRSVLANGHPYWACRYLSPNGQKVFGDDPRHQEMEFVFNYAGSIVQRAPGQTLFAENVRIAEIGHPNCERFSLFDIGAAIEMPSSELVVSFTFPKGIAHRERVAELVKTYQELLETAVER

[3] = molecular target: T3, L-tryptophanyl-S-IvoA-ΔC(E^0)
T3 chain: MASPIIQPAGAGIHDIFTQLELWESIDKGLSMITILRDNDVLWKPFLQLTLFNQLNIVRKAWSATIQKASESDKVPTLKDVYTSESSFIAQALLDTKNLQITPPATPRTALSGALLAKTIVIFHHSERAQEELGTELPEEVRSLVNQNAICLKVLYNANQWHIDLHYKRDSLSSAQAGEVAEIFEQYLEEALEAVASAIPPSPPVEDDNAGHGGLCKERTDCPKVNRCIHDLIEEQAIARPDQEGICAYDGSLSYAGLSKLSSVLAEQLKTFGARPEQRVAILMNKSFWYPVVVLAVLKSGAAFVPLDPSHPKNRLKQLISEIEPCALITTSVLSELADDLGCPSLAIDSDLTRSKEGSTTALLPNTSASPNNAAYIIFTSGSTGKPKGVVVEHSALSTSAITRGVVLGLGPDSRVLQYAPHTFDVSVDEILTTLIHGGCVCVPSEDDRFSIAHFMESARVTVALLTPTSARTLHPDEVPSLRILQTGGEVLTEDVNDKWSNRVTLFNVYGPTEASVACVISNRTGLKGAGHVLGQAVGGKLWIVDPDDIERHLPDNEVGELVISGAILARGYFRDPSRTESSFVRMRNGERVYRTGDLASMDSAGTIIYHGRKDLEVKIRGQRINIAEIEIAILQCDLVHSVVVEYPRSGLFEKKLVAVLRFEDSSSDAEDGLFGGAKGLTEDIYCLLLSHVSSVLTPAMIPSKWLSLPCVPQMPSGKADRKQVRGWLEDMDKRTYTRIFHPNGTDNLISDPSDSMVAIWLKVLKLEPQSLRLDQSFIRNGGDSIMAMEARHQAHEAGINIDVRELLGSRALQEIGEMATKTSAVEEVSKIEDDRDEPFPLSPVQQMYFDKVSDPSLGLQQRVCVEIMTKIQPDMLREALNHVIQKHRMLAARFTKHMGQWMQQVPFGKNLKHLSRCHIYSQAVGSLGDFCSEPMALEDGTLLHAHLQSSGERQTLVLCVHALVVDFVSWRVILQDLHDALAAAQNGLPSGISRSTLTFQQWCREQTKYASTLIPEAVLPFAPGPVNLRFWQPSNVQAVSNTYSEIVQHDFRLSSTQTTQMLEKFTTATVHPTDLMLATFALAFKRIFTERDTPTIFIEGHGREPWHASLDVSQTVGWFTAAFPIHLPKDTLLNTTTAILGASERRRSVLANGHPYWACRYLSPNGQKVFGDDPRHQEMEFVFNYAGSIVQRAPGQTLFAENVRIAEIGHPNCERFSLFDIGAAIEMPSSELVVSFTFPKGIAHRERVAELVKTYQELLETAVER

B1: standalone IvoA-C (condensation (C) domain of Aspergillus nidulans single-module NRPS IvoA) (protein)
chain: DLDLSAKLSSPLVCPADVVRSLEVNGVCIERDVEIVYTPSSIQQHMLWRQSQEPWFYRVQGDWTIEKTTTQSEPVDIDRLSHAWNQVVHRHTTLRTVFRYSSEEERFVAIVLHEVKPAISIIRKGIQTSGSLCRDDDLSPPHRMVLREKDNGSVVCELEFSHTIIDAASRSIVVQDLLDAYDGKLAHRPLDFPPFWEYIRLAQSSTPSARKEELHRAGRVVTLPFQPTHVLSKVPEACKKNEITISSFFMTAWSIVLAKHFVAHNQRVDSTSSQAVAFDYVLSDRSANIPGIESAVGPYIRLPTLETHVKEGVSLKNIARGLHAQCTFQSLSQSTQDGSSLELPSKATALQKYSTLVNIRNSGSDSLDLVSDSGEWKWILQGFSDPWDYDLVFAVNVHAGKVTGWTVEYADGVVEHSAADEIAKDLNDVVERMVCEII
In the case of B1, the “IvoA-C catalyzed hydrolysis of the protein-bound thioester; liberated free tryptophan quantified by LC-MS” value [1] is reported as “IvoA-C stereoselectively hydrolyzed D-tryptophanyl-S-IvoA-ΔC(E^0) over L-tryptophanyl-S-IvoA-ΔC(E^0)”, the “stereoinversion activity (complementation in trans)” value [2] is reported as “Addition of IvoA-C in equimolar to either IvoA(C^0) mutant or IvoA-ΔC truncation mutant successfully rescued the impaired stereoinversion activity” and the “IvoA-C catalyzed hydrolysis of the protein-bound thioester; liberated free tryptophan quantified by LC-MS” value [3] is reported as “IvoA-C stereoselectively hydrolyzed D-tryptophanyl-S-IvoA-ΔC(E^0) over L-tryptophanyl-S-IvoA-ΔC(E^0)”.
